Test results: article PMC9856783, “Identification and Characterization of Aptamers Targeting Ovarian Cancer Biomarker Human Epididymis Protein 4 for the Application in Urine”

T1: Human epididymis protein 4 (HE4) (human, UniProt Q14508 31-124)
T1 sequence: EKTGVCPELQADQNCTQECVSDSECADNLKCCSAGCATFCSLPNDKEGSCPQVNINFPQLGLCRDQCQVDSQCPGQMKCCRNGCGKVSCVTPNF

B1: Scramble aptamer DNA (ssDNA)
DNA: ATCGCGTCCGTCAATTACCTACGCTGCACCACTTATGAGCCGGTATCGCCATCCGTCAACTCACGCCTCC
B2: AHE2 (ssDNA)
DNA: TCGCACATTCCGCTTCTACCGCCAACATCGTACTCCATCTGCCACCCCCACGTAAGTCCGTGTGTGCGAA

Key:
[1] = molecular target: T1, Human epididymis protein 4 (HE4); assay: thermofluorimetric analysis (SYBR Gold); 1/125 artificial urine; HE4 up to 800 nM; 100 nM DNA, 0-800 nM HE4, 1/125 diluted artificial urine, 1x SYBR Gold, protein buffer (10.1 mM Na2HPO4, 137 mM NaCl, 2.7 mM KCl, 1.8 mM KH2PO4, 1 mM MgCl2); pH; settings: protein: commercial; tags: 6xHis; label: SYBR Gold dye (non-covalent)
[2] = molecular target: T1, Human epididymis protein 4 (HE4); assay: thermofluorimetric analysis (SYBR Gold); preliminary data, urine; 100 nM DNA, 0-800 nM HE4, 1/125 diluted artificial urine, 1x SYBR Gold, protein buffer (10.1 mM Na2HPO4, 137 mM NaCl, 2.7 mM KCl, 1.8 mM KH2PO4, 1 mM MgCl2); pH; settings: protein: commercial; tags: 6xHis; label: SYBR Gold dye (non-covalent)

Row | Binder | binding result [1] | binding result [2]
1 | B1 | no binding | –
2 | B2 | – | no binding
